This is an account of results in publication PMC3829318.

The nature of series [1]: activity after preincubation at 30 °C. The conditions noted are these: glycan lost; control: rKOR1 WT.
Series [2] can be described thus: anti-KOR1 immunoblot of Sf21 culture medium. The conditions noted are these: control: rKOR1 WT. On the technique in general: A western blot detects proteins with antibodies after separation by electrophoresis.
A short description of series [3]: (carboxymethyl)cellulose 4M hydrolysis, reducing sugar assay. The conditions noted are these: control: rKOR1 WT.
Series [4] is described as follows: Golgi processing of remaining glycopeptides, LC-ESI-MS, N. benthamiana. The conditions noted are these: glycan lost; control: wild-type KOR1-Fc-GFP.

B1: KORRIGAN1 (KOR1): N345Q (protein)
parent chain: MYGRDPWGGPLEINTADSATDDDRSRNLNDLDRAALSRPLDETQQSWLLGPTEQKKKKYVDLGCIIVSRKIFVWTVGTLVAAALLAGFITLIVKTVPRHHPKTPPPDNYTIALHKALKFFNAQKSGKLPKHNNVSWRGNSGLQDGKGETGSFYKDLVGGYYDAGDAIKFNFPMAYAMTMLSWSVIEYSAKYEAAGELTHVKELIKWGTDYFLKTFNSTADSIDDLVSQVGSGNTDDGNTDPNDHYCWMRPEDMDYKRPVTTCNGGCSDLAAEMAAALASASIVFKDNKEYSKKLVHGAKVVYQFGRTRRGRYSAGTAESSKFYNSSMYWDEFIWGGAWMYYATGNVTYLNLITQPTMAKHAGAFWGGPYYGVFSWDNKLAGAQLLLSRLRLFLSPGYPYEEILRTFHNQTSIVMCSYLPIFNKFNRTNGGLIELNHGAPQPLQYSVNAAFLATLYSDYLDAADTPGWYCGPNFYSTSVLRDFARSQIDYILGKNPRKMSYVVGFGTKYPRHVHHRGASIPKNKVKYNCKGGWKWRDSKKPNPNTIEGAMVAGPDKRDGYRDVRMNYNYTEPTLAGNAGLVAALVALSGEEEATGKIDKNTIFSAVPPLFPTPPPPPAPWKP
Take B1: the “stability_or_folding, other: residual activity after 120 min” value in series [1] is listed as “no change, at least 90 vs at least 90”. For the same protein, the expression_or_secretion entry in series [2] (glycan lost) is recorded as “no change”. Moreover, the “enzymatic_activity, other: specific activity” value (“enzymatic_activity, other” for short) in series [3] (glycan lost) was “decreases, 271 ± 25 vs 374 ± 18”. Further, in series [4], the localisation_or_trafficking entry is “no change”.

B2: KORRIGAN1 (KOR1): N425Q (protein)
parent chain: MYGRDPWGGPLEINTADSATDDDRSRNLNDLDRAALSRPLDETQQSWLLGPTEQKKKKYVDLGCIIVSRKIFVWTVGTLVAAALLAGFITLIVKTVPRHHPKTPPPDNYTIALHKALKFFNAQKSGKLPKHNNVSWRGNSGLQDGKGETGSFYKDLVGGYYDAGDAIKFNFPMAYAMTMLSWSVIEYSAKYEAAGELTHVKELIKWGTDYFLKTFNSTADSIDDLVSQVGSGNTDDGNTDPNDHYCWMRPEDMDYKRPVTTCNGGCSDLAAEMAAALASASIVFKDNKEYSKKLVHGAKVVYQFGRTRRGRYSAGTAESSKFYNSSMYWDEFIWGGAWMYYATGNVTYLNLITQPTMAKHAGAFWGGPYYGVFSWDNKLAGAQLLLSRLRLFLSPGYPYEEILRTFHNQTSIVMCSYLPIFNKFNRTNGGLIELNHGAPQPLQYSVNAAFLATLYSDYLDAADTPGWYCGPNFYSTSVLRDFARSQIDYILGKNPRKMSYVVGFGTKYPRHVHHRGASIPKNKVKYNCKGGWKWRDSKKPNPNTIEGAMVAGPDKRDGYRDVRMNYNYTEPTLAGNAGLVAALVALSGEEEATGKIDKNTIFSAVPPLFPTPPPPPAPWKP
On to B2, for which, in series [1], the “stability_or_folding, other: residual activity after 120 min” value was “decreases, 69 vs at least 90”. Besides, the expression_or_secretion result in series [2] (glycan lost) is “no change”. For the same protein, the “enzymatic_activity, other” value in series [3] (glycan lost) is recorded as “no change, 394 ± 34 vs 374 ± 18”. Besides, the localisation_or_trafficking entry in series [4] is recorded as “no change”.

B3: KORRIGAN1 (KOR1): N216Q (protein)
parent chain: MYGRDPWGGPLEINTADSATDDDRSRNLNDLDRAALSRPLDETQQSWLLGPTEQKKKKYVDLGCIIVSRKIFVWTVGTLVAAALLAGFITLIVKTVPRHHPKTPPPDNYTIALHKALKFFNAQKSGKLPKHNNVSWRGNSGLQDGKGETGSFYKDLVGGYYDAGDAIKFNFPMAYAMTMLSWSVIEYSAKYEAAGELTHVKELIKWGTDYFLKTFNSTADSIDDLVSQVGSGNTDDGNTDPNDHYCWMRPEDMDYKRPVTTCNGGCSDLAAEMAAALASASIVFKDNKEYSKKLVHGAKVVYQFGRTRRGRYSAGTAESSKFYNSSMYWDEFIWGGAWMYYATGNVTYLNLITQPTMAKHAGAFWGGPYYGVFSWDNKLAGAQLLLSRLRLFLSPGYPYEEILRTFHNQTSIVMCSYLPIFNKFNRTNGGLIELNHGAPQPLQYSVNAAFLATLYSDYLDAADTPGWYCGPNFYSTSVLRDFARSQIDYILGKNPRKMSYVVGFGTKYPRHVHHRGASIPKNKVKYNCKGGWKWRDSKKPNPNTIEGAMVAGPDKRDGYRDVRMNYNYTEPTLAGNAGLVAALVALSGEEEATGKIDKNTIFSAVPPLFPTPPPPPAPWKP
As for B3, the “stability_or_folding, other: residual activity after 120 min” value in series [1] was “no change, at least 90 vs at least 90”. Besides, the expression_or_secretion entry in series [2] (glycan lost) is “no change”. The “enzymatic_activity, other” value in series [3] (glycan lost) is reported as “decreases, 244 ± 25 vs 374 ± 18”. Also, the localisation_or_trafficking entry in series [4] is reported as “no change”.

B4: KORRIGAN1 (KOR1): N567Q (protein)
parent chain: MYGRDPWGGPLEINTADSATDDDRSRNLNDLDRAALSRPLDETQQSWLLGPTEQKKKKYVDLGCIIVSRKIFVWTVGTLVAAALLAGFITLIVKTVPRHHPKTPPPDNYTIALHKALKFFNAQKSGKLPKHNNVSWRGNSGLQDGKGETGSFYKDLVGGYYDAGDAIKFNFPMAYAMTMLSWSVIEYSAKYEAAGELTHVKELIKWGTDYFLKTFNSTADSIDDLVSQVGSGNTDDGNTDPNDHYCWMRPEDMDYKRPVTTCNGGCSDLAAEMAAALASASIVFKDNKEYSKKLVHGAKVVYQFGRTRRGRYSAGTAESSKFYNSSMYWDEFIWGGAWMYYATGNVTYLNLITQPTMAKHAGAFWGGPYYGVFSWDNKLAGAQLLLSRLRLFLSPGYPYEEILRTFHNQTSIVMCSYLPIFNKFNRTNGGLIELNHGAPQPLQYSVNAAFLATLYSDYLDAADTPGWYCGPNFYSTSVLRDFARSQIDYILGKNPRKMSYVVGFGTKYPRHVHHRGASIPKNKVKYNCKGGWKWRDSKKPNPNTIEGAMVAGPDKRDGYRDVRMNYNYTEPTLAGNAGLVAALVALSGEEEATGKIDKNTIFSAVPPLFPTPPPPPAPWKP
Regarding B4, in series [1], the “stability_or_folding, other: residual activity after 120 min” value is on record as “no change, at least 90 vs at least 90”. Moreover, the expression_or_secretion result in series [2] (glycan lost) is “decreases”. In addition, in series [4], the localisation_or_trafficking result was “no change”.

B5: KORRIGAN1 (KOR1): N408Q (protein)
parent chain: MYGRDPWGGPLEINTADSATDDDRSRNLNDLDRAALSRPLDETQQSWLLGPTEQKKKKYVDLGCIIVSRKIFVWTVGTLVAAALLAGFITLIVKTVPRHHPKTPPPDNYTIALHKALKFFNAQKSGKLPKHNNVSWRGNSGLQDGKGETGSFYKDLVGGYYDAGDAIKFNFPMAYAMTMLSWSVIEYSAKYEAAGELTHVKELIKWGTDYFLKTFNSTADSIDDLVSQVGSGNTDDGNTDPNDHYCWMRPEDMDYKRPVTTCNGGCSDLAAEMAAALASASIVFKDNKEYSKKLVHGAKVVYQFGRTRRGRYSAGTAESSKFYNSSMYWDEFIWGGAWMYYATGNVTYLNLITQPTMAKHAGAFWGGPYYGVFSWDNKLAGAQLLLSRLRLFLSPGYPYEEILRTFHNQTSIVMCSYLPIFNKFNRTNGGLIELNHGAPQPLQYSVNAAFLATLYSDYLDAADTPGWYCGPNFYSTSVLRDFARSQIDYILGKNPRKMSYVVGFGTKYPRHVHHRGASIPKNKVKYNCKGGWKWRDSKKPNPNTIEGAMVAGPDKRDGYRDVRMNYNYTEPTLAGNAGLVAALVALSGEEEATGKIDKNTIFSAVPPLFPTPPPPPAPWKP
For the protein B5, the “stability_or_folding, other: residual activity after 120 min” value in series [1] is listed as “no change, at least 90 vs at least 90”. Also, the expression_or_secretion entry in series [2] (glycan lost) is reported as “no change”. Moreover, the “enzymatic_activity, other” value in series [3] (glycan lost) is recorded as “no change, 379 ± 18 vs 374 ± 18”. Besides, in series [4], the localisation_or_trafficking result was “no change”.

B6: KORRIGAN1 (KOR1): N324Q (protein)
parent chain: MYGRDPWGGPLEINTADSATDDDRSRNLNDLDRAALSRPLDETQQSWLLGPTEQKKKKYVDLGCIIVSRKIFVWTVGTLVAAALLAGFITLIVKTVPRHHPKTPPPDNYTIALHKALKFFNAQKSGKLPKHNNVSWRGNSGLQDGKGETGSFYKDLVGGYYDAGDAIKFNFPMAYAMTMLSWSVIEYSAKYEAAGELTHVKELIKWGTDYFLKTFNSTADSIDDLVSQVGSGNTDDGNTDPNDHYCWMRPEDMDYKRPVTTCNGGCSDLAAEMAAALASASIVFKDNKEYSKKLVHGAKVVYQFGRTRRGRYSAGTAESSKFYNSSMYWDEFIWGGAWMYYATGNVTYLNLITQPTMAKHAGAFWGGPYYGVFSWDNKLAGAQLLLSRLRLFLSPGYPYEEILRTFHNQTSIVMCSYLPIFNKFNRTNGGLIELNHGAPQPLQYSVNAAFLATLYSDYLDAADTPGWYCGPNFYSTSVLRDFARSQIDYILGKNPRKMSYVVGFGTKYPRHVHHRGASIPKNKVKYNCKGGWKWRDSKKPNPNTIEGAMVAGPDKRDGYRDVRMNYNYTEPTLAGNAGLVAALVALSGEEEATGKIDKNTIFSAVPPLFPTPPPPPAPWKP
For B6, in series [1], the “stability_or_folding, other: residual activity after 120 min” value is listed as “no change, at least 90 vs at least 90”. Besides, the expression_or_secretion result in series [2] (glycan lost) was “no change”. In series [3] (glycan lost), the “enzymatic_activity, other” value was “decreases, 307 ± 8 vs 374 ± 18”. The localisation_or_trafficking result in series [4] is listed as “no change”.

B7: KORRIGAN1 (KOR1): N216Q/N324Q/N345Q (protein)
parent chain: MYGRDPWGGPLEINTADSATDDDRSRNLNDLDRAALSRPLDETQQSWLLGPTEQKKKKYVDLGCIIVSRKIFVWTVGTLVAAALLAGFITLIVKTVPRHHPKTPPPDNYTIALHKALKFFNAQKSGKLPKHNNVSWRGNSGLQDGKGETGSFYKDLVGGYYDAGDAIKFNFPMAYAMTMLSWSVIEYSAKYEAAGELTHVKELIKWGTDYFLKTFNSTADSIDDLVSQVGSGNTDDGNTDPNDHYCWMRPEDMDYKRPVTTCNGGCSDLAAEMAAALASASIVFKDNKEYSKKLVHGAKVVYQFGRTRRGRYSAGTAESSKFYNSSMYWDEFIWGGAWMYYATGNVTYLNLITQPTMAKHAGAFWGGPYYGVFSWDNKLAGAQLLLSRLRLFLSPGYPYEEILRTFHNQTSIVMCSYLPIFNKFNRTNGGLIELNHGAPQPLQYSVNAAFLATLYSDYLDAADTPGWYCGPNFYSTSVLRDFARSQIDYILGKNPRKMSYVVGFGTKYPRHVHHRGASIPKNKVKYNCKGGWKWRDSKKPNPNTIEGAMVAGPDKRDGYRDVRMNYNYTEPTLAGNAGLVAALVALSGEEEATGKIDKNTIFSAVPPLFPTPPPPPAPWKP
For the protein B7, the localisation_or_trafficking entry in series [4] is reported as “no change”.

B8: KORRIGAN1 (KOR1): kifunensine (rKOR1 KIF) (protein)
parent chain: MYGRDPWGGPLEINTADSATDDDRSRNLNDLDRAALSRPLDETQQSWLLGPTEQKKKKYVDLGCIIVSRKIFVWTVGTLVAAALLAGFITLIVKTVPRHHPKTPPPDNYTIALHKALKFFNAQKSGKLPKHNNVSWRGNSGLQDGKGETGSFYKDLVGGYYDAGDAIKFNFPMAYAMTMLSWSVIEYSAKYEAAGELTHVKELIKWGTDYFLKTFNSTADSIDDLVSQVGSGNTDDGNTDPNDHYCWMRPEDMDYKRPVTTCNGGCSDLAAEMAAALASASIVFKDNKEYSKKLVHGAKVVYQFGRTRRGRYSAGTAESSKFYNSSMYWDEFIWGGAWMYYATGNVTYLNLITQPTMAKHAGAFWGGPYYGVFSWDNKLAGAQLLLSRLRLFLSPGYPYEEILRTFHNQTSIVMCSYLPIFNKFNRTNGGLIELNHGAPQPLQYSVNAAFLATLYSDYLDAADTPGWYCGPNFYSTSVLRDFARSQIDYILGKNPRKMSYVVGFGTKYPRHVHHRGASIPKNKVKYNCKGGWKWRDSKKPNPNTIEGAMVAGPDKRDGYRDVRMNYNYTEPTLAGNAGLVAALVALSGEEEATGKIDKNTIFSAVPPLFPTPPPPPAPWKP
Turning to B8, the expression_or_secretion result in series [2] (glycan changed form) is given as “no change”. The “enzymatic_activity, other” value in series [3] (glycan changed form) is given as “no change, 402 ± 40 vs 374 ± 18”.
